Data: doi:10.1101/559534v1 (biorxiv, 2019)
Positions count from the first letter of the chain named. In names and notes the source's numbering stands.

Key:
[1] = target: T1, ATRR (ATR1R2) (Aspergillus nidulans, UniProt A0A1U8QWA2); experiment: glycine betaine reductase inhibition kinetics; type: biochemical
T1 sequence (A0A1U8QWA2 1-1270): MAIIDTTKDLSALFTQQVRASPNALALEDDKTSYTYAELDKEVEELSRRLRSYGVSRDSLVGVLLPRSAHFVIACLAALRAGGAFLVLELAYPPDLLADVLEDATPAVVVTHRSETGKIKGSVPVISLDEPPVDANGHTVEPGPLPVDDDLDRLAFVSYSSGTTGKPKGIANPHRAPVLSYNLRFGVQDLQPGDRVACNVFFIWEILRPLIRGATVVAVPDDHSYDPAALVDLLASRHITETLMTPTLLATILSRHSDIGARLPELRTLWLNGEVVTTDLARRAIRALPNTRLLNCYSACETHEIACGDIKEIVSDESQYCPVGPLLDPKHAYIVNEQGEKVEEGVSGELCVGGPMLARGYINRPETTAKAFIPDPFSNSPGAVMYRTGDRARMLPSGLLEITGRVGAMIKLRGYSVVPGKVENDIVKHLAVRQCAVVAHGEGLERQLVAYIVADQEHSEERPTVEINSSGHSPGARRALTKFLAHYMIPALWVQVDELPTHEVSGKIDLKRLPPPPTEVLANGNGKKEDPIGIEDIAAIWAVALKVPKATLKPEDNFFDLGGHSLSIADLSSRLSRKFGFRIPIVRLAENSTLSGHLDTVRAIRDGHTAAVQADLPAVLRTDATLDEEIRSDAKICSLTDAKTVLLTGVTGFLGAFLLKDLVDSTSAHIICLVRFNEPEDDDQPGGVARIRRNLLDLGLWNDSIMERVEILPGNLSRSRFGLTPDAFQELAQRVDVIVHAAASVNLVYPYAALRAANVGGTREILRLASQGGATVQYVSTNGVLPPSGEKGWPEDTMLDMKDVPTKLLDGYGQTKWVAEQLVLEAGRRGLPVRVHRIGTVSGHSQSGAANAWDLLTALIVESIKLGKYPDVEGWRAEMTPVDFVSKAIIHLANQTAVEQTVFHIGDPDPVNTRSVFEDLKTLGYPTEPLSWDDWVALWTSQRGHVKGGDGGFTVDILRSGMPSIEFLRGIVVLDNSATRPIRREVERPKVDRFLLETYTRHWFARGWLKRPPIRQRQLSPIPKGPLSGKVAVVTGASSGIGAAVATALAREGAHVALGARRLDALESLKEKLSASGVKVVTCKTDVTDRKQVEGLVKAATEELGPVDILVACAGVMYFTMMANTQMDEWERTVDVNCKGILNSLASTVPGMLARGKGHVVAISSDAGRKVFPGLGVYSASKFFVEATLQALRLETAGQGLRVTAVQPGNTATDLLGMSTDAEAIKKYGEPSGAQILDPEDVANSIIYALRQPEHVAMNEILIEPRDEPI

[2] = target: T1, ATRR (ATR1R2); experiment: carboxylic acid reductase steady-state kinetics; type: biochemical; details: substrate inhibition
[3] = substrate: C[N+](C)(C)CC=O; experiment: purified protein; details: NADPH as co-substrate
[4] = substrate: C[N+](C)(C)CC(=O)[O-]; experiment: carboxylic acid reductase steady-state kinetics, NADPH oxidation; type: biochemical, Aspergillus nidulans; details: ATP and NADPH as co-substrates; R2 inactivated
[5] = substrate: C[N+](C)(C)CC(=O)[O-]; experiment: purified protein; type: biochemical, Aspergillus nidulans; details: holo-enzyme; ATP and NADPH as co-substrates
[6] = substrate: CN(C)CC(=O)O; experiment: purified protein; details: ATP and NADPH as co-substrates; fit with substrate inhibition

Molecule: CN(C)C [N(CH3)3H+Cl-]
- Ki [1]: 2600 ± 500 µM

Molecule: C[N+](C)(C)CCO [Choline]
- Ki [1]: 270 ± 30 µM

Molecule: CN(C)CC(=O)O [N,N-Dimethylglycine]
- Ki [2]: 48000 ± 9000 µM

B1: ATRR (ATR1R2) (Aspergillus nidulans FGSC A4; Y812F) (protein)
chain: T1 sequence (A0A1U8QWA2 1-1270) with Y812F
- Km ([3]; R1 inactivated): 240 ± 30 µM
- kcat ([3]; R1 inactivated): 7.0 ± 0.2 s⁻¹

B2: ATRR (ATR1R2) (Aspergillus nidulans FGSC A4; G1036A/Y1178F) (protein)
chain: T1 sequence (A0A1U8QWA2 1-1270) with G1036A, Y1178F
- Km [4]: 2200 ± 300 µM
- kcat [4]: 0.66 ± 0.02 s⁻¹
- Km ([3]; R2 inactivated): 2600 ± 500 µM
- kcat ([3]; R2 inactivated): 0.018 ± 0.001 s⁻¹

B3: ATRR (ATR1R2) (Aspergillus nidulans FGSC A4; Y1178F) (protein)
chain: T1 sequence (A0A1U8QWA2 1-1270) with Y1178F
- Km [4]: 2200 ± 200 µM
- kcat [4]: 0.72 ± 0.02 s⁻¹
- Km ([3]; R2 inactivated): 1500 ± 600 µM
- kcat ([3]; R2 inactivated): 0.30 ± 0.04 s⁻¹

B4: ATRR (ATR1R2) (Aspergillus nidulans FGSC A4) (protein)
chain: T1 sequence (A0A1U8QWA2 1-1270)
- Km [5]: 2100 ± 200 µM
- kcat [5]: 0.94 ± 0.03 s⁻¹
- Km ([3]; R2 site): 240 ± 30 µM
- kcat ([3]; R2 site): 7.1 ± 0.3 s⁻¹
- Km [6]: 5800 ± 800 µM
- kcat [6]: 0.023 ± 0.002 s⁻¹
